Data set [1] deals with PC-3 cells. Briefly: In vitro internalization assay. Format: cell-based, human. Particulars: 37°C, postincubation.
The nature of data set [2]: Biodistribution in healthy CF-1 mice. Particulars: female, CF-1, mouse, iv, 750 kBq, total radioactivity. Format: in vivo, mouse.
In data set [3] the test system is CF-1 mice. Briefly: Biodistribution in healthy CF-1 mice. The class given is in vivo, mouse. Particulars: CF-1 mice, tail vein injection, after 1 h p.i.
Data set [4] concerns PC-3 tumor-bearing SCID mouse. Briefly: MicroPET/CT imaging. Particulars: PC-3 tumor-bearing mouse, 26 MBq via tail vein, 15 h p.i. Format: in vivo.
Data set [5] is described as follows: in vivo. Particulars: female, SCID, mouse, iv, 750 kBq, total radioactivity; for tissue uptake at 1 h / tissue uptake at 4 h / tissue uptake at 24 h: Biodistribution.
Data set [6] is described as follows: Biodistribution in PC-3 tumor-bearing SCID mice. Particulars: female, mouse, in vivo, iv, total radioactivity; for tissue uptake at 24 h: 24 h p.i.
For data set [7], the system named is PC-3 tumor-bearing SCID mice. As to the kind of experiment: Biodistribution in PC-3 tumor-bearing SCID mice. Particulars: PC-3 tumor-bearing SCID mice, tail vein injection, 1 h p.i., mean±S.D., n=5, bilateral xenografts.
In data set [8] the test system is PC-3 cells. Briefly: Blocking experiment, cellular uptake of tracer. The class given is cell-based, human. Particulars: 50 μg blocker added 15 min prior to tracer.
Data set [9] has as its system GRPr. Particulars: read-out: GRPr binding affinity; nonmetallated probe; cited from earlier work.
In data set [10] the test system is PC-3 tumor uptake in nude mice. Particulars: mouse, in vivo; cited from earlier work.
The conditions of data set [11]: later time points; cited from earlier work.
Data set [12] addresses αvβ3 receptors on PC-3 cells (Homo sapiens, UniProt P05106+P06756). As to the kind of experiment: Cell binding assay, displacement of 125I-Echistatin in PC-3 cells. For orientation: Displacement assays read how much labelled ligand stays bound in the presence of the test substance.

This is an account of results in PMC3629973 (Nuclear medicine and biology, 2012).

“Also recorded” adds a separate entry of the source.

Chain of αvβ3 receptors on PC-3 cells (P06756 31-889 limits assumed): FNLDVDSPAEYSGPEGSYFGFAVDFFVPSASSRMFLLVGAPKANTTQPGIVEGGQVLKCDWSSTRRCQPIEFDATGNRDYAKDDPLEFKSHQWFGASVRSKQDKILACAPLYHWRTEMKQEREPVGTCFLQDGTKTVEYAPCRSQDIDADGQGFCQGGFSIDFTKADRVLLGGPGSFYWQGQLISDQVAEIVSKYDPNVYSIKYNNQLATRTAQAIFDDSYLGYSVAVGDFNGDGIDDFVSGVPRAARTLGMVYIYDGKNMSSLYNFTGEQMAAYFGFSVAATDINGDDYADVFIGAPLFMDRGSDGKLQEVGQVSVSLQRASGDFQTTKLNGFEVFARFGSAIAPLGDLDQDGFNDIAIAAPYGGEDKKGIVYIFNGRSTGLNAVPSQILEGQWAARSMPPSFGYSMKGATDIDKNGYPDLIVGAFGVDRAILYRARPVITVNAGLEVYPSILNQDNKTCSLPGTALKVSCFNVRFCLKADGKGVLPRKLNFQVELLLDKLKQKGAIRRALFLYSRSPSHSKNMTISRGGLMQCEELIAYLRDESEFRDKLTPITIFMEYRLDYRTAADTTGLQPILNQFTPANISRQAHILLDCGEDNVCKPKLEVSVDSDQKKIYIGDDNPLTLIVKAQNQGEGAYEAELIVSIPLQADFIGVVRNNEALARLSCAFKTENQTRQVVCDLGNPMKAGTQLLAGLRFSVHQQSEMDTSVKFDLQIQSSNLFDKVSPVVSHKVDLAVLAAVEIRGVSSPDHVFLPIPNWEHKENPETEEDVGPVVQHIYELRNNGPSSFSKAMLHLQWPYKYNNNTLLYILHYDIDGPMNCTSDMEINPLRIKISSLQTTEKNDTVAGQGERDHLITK
Chain of αvβ3 receptors on PC-3 cells (P06756 891-1048 partner limits assumed): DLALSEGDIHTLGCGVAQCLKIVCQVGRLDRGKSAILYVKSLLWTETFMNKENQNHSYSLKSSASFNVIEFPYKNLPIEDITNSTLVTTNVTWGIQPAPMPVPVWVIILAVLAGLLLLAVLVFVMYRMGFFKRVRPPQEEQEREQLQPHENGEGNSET
Chain of αvβ3 receptors on PC-3 cells (P05106 27-788): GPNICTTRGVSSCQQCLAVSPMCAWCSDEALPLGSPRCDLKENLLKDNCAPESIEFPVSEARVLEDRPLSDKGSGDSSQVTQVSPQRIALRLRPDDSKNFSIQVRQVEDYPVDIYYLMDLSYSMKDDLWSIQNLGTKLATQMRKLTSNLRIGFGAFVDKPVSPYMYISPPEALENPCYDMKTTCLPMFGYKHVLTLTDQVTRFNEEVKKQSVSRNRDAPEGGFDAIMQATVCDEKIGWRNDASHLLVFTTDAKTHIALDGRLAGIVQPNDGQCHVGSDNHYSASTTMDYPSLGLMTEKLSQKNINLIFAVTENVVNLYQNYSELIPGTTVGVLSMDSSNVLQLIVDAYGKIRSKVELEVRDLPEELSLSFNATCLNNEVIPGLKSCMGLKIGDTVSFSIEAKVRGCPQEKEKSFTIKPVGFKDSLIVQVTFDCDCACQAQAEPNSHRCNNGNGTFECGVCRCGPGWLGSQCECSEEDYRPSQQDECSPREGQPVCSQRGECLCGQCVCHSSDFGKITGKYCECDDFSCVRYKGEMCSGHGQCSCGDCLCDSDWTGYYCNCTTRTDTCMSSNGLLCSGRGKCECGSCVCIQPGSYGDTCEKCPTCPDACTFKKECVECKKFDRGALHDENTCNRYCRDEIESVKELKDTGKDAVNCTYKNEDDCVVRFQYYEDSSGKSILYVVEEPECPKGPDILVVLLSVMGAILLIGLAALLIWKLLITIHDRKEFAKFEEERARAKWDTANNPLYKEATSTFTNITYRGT

The tissue uptake is the share of the injected amount in each gram of the tissue. Consider `CSCC[C@H](NC(=O)[C@H](CC(C)C)NC(=O)[C@H](Cc1c[nH]cn1)NC(=O)CNC(=O)[C@@H](NC(=O)[C@H](C)NC(=O)[C@H](Cc1c[nH]c2ccccc12)NC(=O)[C@H](CCC(N)=O)NC(=O)CCCCCNC(=O)[C@H](CCC(=O)NCCCC[C@@H]1NC(=O)[C@@H](Cc2ccc(O)cc2)NC(=O)[C@H](CC(=O)O)NC(=O)CNC(=O)[C@H](CCCNC(=N)N)NC1=O)NC(=O)CN1CCN(CC(=O)O)CCN(CC(=O)O)CC1)C(C)C)C(N)=O` [^64Cu-NO2A-RGD-Glu-6-Ahx-BBN(7-14)NH2, metal not drawn], for which the “Time of maximum internalization” value in [1] is recorded as ~ 90 min. For the same compound, the tissue uptake at 1 h in data set [2] (pancreas) amounted to 5.9 ± 1.74 %ID/g; in data set [5] (Bone) it was 0.52 ± 0.27 %ID/g; in [5] (Brain), 0.05 ± 0.01 %ID/g; in data set [5] (Heart), 0.35 ± 0.1 %ID/g; in data set [5] (Large intestine), 1.34 ± 0.11 %ID/g; in data set [5] (Lung), 0.97 ± 0.25 %ID/g. Moreover, the tissue uptake at 1 h came to 0.22 ± 0.08 %ID/g in data set [5] (Muscle); 21.6 ± 3.3 %ID/g in [5] (Pancreas); 5.21 ± 0.75 %ID/g in [5] (Small intestine); 1.04 ± 0.08 %ID/g in data set [6] (ICR SCID, 750 kBq (~20 uCi)); 3.39 ± 3.54 %ID/g in data set [6] (SCID, 750 kBq, Biodistribution, Bladder, PC-3 tumor-bearing SCID mice, tail vein injection, 1 h p.i., mean±S.D., n=5). The tissue uptake dose at 1 h in [2] (whole blood) came to 0.42 %ID; in data set [5], 0.72 ± 0.1 %ID. The compound further came in with a Urinary excretion in [3] of around 85%. Further, the MicroPET image quality result in data set [4] was “high-quality, high-contrast images”. Moreover, in data set [5], the tissue uptake dose at 4 h worked out at 0.16 ± 0.05 %ID. The tissue uptake dose at 24 h in [5] is 0.18 ± 0.02 %ID. Moreover, the tissue uptake at 4 h is 0.13 ± 0.08 %ID/g in [5] (Bone); 0.04 ± 0.02 %ID/g in [5] (Brain); 0.22 ± 0.05 %ID/g in [5] (Heart); 6.86 ± 0.88 %ID/g in [5] (Large intestine); 0.09 ± 0.04 %ID/g in data set [5] (Muscle); 13.2 ± 1.79 %ID/g in data set [5] (Pancreas). Moreover, the tissue uptake at 4 h amounted to 2.1 ± 0.4 %ID/g in data set [5] (Small intestine) and 0.55 ± 0.33 %ID/g in data set [6] (SCID, 750 kBq, Biodistribution, Bladder, PC-3 tumor-bearing SCID mice, tail vein injection, 4 h p.i., mean±S.D., n=5). Moreover, the tissue uptake at 24 h in data set [5] (Bone) is 0.13 ± 0.15 %ID/g; in data set [5] (Brain) it was 0.03 ± 0.02 %ID/g; in data set [5] (Heart) it was 0.48 ± 0.17 %ID/g; in data set [5] (Large intestine) it was 0.85 ± 0.18 %ID/g; in [5] (Muscle) it was 0.08 ± 0.1 %ID/g; in data set [5] (Pancreas) it was 5.18 ± 0.57 %ID/g. In addition, the tissue uptake at 24 h in data set [5] (Small intestine) was found to be 0.78 ± 0.14 %ID/g; in data set [6] (SCID, 750 kBq, Biodistribution, Bladder, PC-3 tumor-bearing SCID mice, tail vein injection, mean±S.D., n=5), 0.31 ± 0.29 %ID/g; in data set [6] (SCID, 750 kBq, Biodistribution, Tumor, PC-3 tumor-bearing SCID mice, tail vein injection, mean±S.D., n=5, bilateral xenografts), 2.42 ± 0.57 %ID/g. In data set [7], the “Biodistribution, Tumor” value is on record as 3.95±1.04 %ID/g.

With NO2A-RGD, in data set [8], the “Reduction of cellular uptake of ^64Cu-NO2A-RGD-Glu-6-Ahx-BBN(7-14)NH2 tracer” value stood at 65%.

Take NO3A-RGD-BBN(7-14)NH2: the IC50 in data set [9] is 92.8 ± 3.53 nM.

Consider ^64Cu-NO3A-BBN(7-14)NH2, for which the PC-3 tumor retention in data set [10] is given as 0.44±0.39 %ID/g.

In the case of ^64Cu-NO3A-RGD, the PC-3 tumor retention in data set [10] was 0.55±0.32 %ID/g.

As for ^64Cu-NO3A-RGD-BBN(7-14)NH2, the “Internalization rate compared to ^64Cu-NO2A-RGD-Glu-6-Ahx-BBN(7-14)NH2” value in [11] was “approximately three times higher”. In data set [10], the PC-3 tumor retention is reported as 2.04±0.35 %ID/g and the “Retention in the kidneys” value is on record as 1.87±0.41 %ID/g.

Take ^natCu-NO2A-RGD: the “Displacement of 125I-Echistatin (binding affinity for αvβ3 receptors)” value in data set [12] is “minimal displacement; also recorded: extremely poor binding affinity”.
